The record followed here is patent publication US20260265354A1 (JIANGSU MABWELL HEALTH PHARMACEUTICAL R AND D, published 2026).

One test has as its target T1, Nectin-1 (UniProt Q15223 31-334, limits assumed).
T1 construct: Bought recombinant protein; also called CD111; PVRL-1
T1 sequence (looked up): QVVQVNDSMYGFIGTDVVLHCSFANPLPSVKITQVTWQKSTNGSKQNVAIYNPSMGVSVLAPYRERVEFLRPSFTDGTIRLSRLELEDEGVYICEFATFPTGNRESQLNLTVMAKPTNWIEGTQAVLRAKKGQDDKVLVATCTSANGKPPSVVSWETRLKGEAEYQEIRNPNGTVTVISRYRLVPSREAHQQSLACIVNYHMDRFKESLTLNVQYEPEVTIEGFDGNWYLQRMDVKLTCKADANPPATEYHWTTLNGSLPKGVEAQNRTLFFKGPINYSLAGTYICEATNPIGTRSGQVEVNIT
Nature of the test: ELISA, coated antigen. In general terms: An ELISA detects its analyte on a solid surface through an enzyme-linked reagent.

In the next test the target is T2, Nectin-like-2 (UniProt Q9BY67 45-374, limits assumed).
T2 construct: Bought recombinant protein; also called CADM1; IgSF4
T2 sequence (looked up): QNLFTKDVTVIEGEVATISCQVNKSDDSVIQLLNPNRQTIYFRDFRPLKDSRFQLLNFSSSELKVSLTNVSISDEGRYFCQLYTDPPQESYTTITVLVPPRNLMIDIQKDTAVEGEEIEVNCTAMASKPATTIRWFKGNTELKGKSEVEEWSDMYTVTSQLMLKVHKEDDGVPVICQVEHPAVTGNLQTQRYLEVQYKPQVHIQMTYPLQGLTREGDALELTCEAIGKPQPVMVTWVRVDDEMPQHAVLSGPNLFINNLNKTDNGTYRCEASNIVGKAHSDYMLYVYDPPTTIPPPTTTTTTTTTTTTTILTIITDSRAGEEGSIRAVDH
Nature of the test: ELISA, coated antigen, antibody at 10 ng/ml. As for the experimental part:
(§1) Coating: Nectin-1, Nectin-2, Nectin-3, Nectin-4, Nectin-like-1, Nectin-like-2, Nectin-like-3, Nectin-like-4, and Nectin-like-5 were diluted to 5 μg/ml in coating buffer (carbonate buffer, pH 9.6) respectively. A 96-well plate was coat with 100 μl per well and incubated overnight at 2-8° C.;
(§2) Sample loading: The plate was taken out, patted dry, and washed twice with 200 μl/well of PBST, then patted dry. The Nectin-4 antibodies prepared in Example 1 (antibody MM11, antibody R012, and antibody R036) were diluted with 1% BSA/PBST to concentrations of 10 μg/ml, 1 μg/ml, 100 ng/ml, and 10 ng/ml, respectively. 1% BSA/PBST solution for dilution was set as a blank control. 100 μl per well was added to the 96-well plate, and incubated at room temperature for 2 hours;
(§3) Reaction termination and plate reading: 100 μl/well of 1 mol/L H3PO4 was added to terminate the reaction and the plated was read. The absorbances of wells in the plate at 450 nm with 650 nm as reference wavelength were read and recorded as OD_{450 nm-650 nm}.

The next test deals with T3, Nectin-2 (UniProt Q92692 32-360, limits assumed).
T3 construct: Bought recombinant protein; also called CD112; PVRL-2
T3 sequence (looked up): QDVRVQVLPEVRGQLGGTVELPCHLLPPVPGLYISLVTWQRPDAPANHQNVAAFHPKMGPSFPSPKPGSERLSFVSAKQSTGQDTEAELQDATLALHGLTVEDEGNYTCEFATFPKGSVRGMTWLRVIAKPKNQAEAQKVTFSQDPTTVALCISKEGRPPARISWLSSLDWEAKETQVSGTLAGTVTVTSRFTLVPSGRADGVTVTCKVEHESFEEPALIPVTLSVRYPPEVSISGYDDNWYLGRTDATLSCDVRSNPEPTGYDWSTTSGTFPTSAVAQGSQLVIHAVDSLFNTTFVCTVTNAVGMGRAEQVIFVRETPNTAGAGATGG
Nature of the test: ELISA, coated antigen, antibody at 10 ng/ml. As for the experimental part: as §1, §2, §3

Another test addresses T4, Nectin-like-5 (UniProt P15151 21-343).
T4 construct: Bought recombinant protein; also called CD155; PVR
T4 sequence (looked up): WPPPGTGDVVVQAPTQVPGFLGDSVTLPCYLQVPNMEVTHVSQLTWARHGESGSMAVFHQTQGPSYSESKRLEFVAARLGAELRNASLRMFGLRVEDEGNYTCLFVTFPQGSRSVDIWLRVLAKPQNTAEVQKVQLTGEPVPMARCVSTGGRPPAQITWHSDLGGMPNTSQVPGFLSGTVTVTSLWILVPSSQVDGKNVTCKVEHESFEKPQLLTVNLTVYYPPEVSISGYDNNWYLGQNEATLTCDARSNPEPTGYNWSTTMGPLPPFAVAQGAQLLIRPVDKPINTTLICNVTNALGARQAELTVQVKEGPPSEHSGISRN
As to the kind of experiment: ELISA, coated antigen, antibody at 10 ng/ml. As to the method: as §1, §2, §3

A further test concerns the target T5, Nectin-like-4 (UniProt Q8NFZ8 21-324, limits assumed).
T5 construct: Bought recombinant protein; also called CADM4; IgSF4C
T5 sequence (looked up): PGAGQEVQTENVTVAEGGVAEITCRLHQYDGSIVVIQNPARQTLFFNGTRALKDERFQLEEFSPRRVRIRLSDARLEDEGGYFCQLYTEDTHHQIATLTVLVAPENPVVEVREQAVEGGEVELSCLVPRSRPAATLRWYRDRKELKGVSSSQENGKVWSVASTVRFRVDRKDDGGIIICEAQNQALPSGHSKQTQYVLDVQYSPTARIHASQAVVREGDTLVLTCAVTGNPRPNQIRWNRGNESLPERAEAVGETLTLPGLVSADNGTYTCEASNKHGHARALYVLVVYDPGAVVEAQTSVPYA
Nature of the test: ELISA, coated antigen, antibody at 10 ng/ml. As for the experimental part:
as §1, §2, §3

The target in another test is T6, Nectin-like-1 (UniProt Q8N126 25-330, limits assumed).
T6 construct: Bought recombinant protein; also called CADM3; IgSF4B
T6 sequence (looked up): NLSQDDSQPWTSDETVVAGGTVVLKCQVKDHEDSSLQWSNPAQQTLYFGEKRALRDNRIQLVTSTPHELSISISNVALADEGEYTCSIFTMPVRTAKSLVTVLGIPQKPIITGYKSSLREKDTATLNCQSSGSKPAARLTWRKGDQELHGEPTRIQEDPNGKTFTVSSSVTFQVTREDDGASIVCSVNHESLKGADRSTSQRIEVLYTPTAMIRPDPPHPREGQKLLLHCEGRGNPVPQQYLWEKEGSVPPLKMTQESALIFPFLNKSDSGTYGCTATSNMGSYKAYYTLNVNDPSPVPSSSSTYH
Nature of the test: ELISA, coated antigen, antibody at 10 ng/ml. As for the experimental part:
as §1, §2, §3

B1: Antibody R012 (antibody, V domains shown)
VH: SKSVEESGGRLVTPGTPLTLTCTVSGFSLSTYAMSWVRQAPGKGLEYIGIISGRGTTYYASWLKGRFTISKTSTTVDLKITSPTTEDTATYFCARDAGISDVYTGYFNLWGQGTLVTVSS
VL: QPVLAQLPSASAALGASAKLTCTLSSAHRTYTIAWYQQQQGEAPRYLMMLKSDGSYTKGTGVPDRFSGSSSGADRYLIISSVQAADEADYYCGADDSGGYVFGGGTQLTVTG
notes: Rabbit monoclonal antibody from phage display; also called Nectin-4 rabbit monoclonal antibody R012; rabbit antibody R012
On to B1, for which the binding result with Nectin-1 was “no binding (tested: 10000 ng/ml)”. In addition, the OD detection value with Nectin-like-2 amounted to 0.008 OD450 nm-650 nm; with Nectin-2, 0.008 OD450 nm-650 nm; with Nectin-like-5 it was 0.009 OD450 nm-650 nm; with Nectin-like-4, 0.008 OD450 nm-650 nm; in the test with Nectin-like-1 it was 0.008 OD450 nm-650 nm.

B2: Antibody R036 (antibody, V domains shown)
VH: SQSVEESGGRLVTPGTPLTLTCTVSGFSLSSYAMSWVRQAPGKGLEYIGIIGGRGTTYYAIWAKGRFTISKTSTTVDLKITSPTTEDTATYFCARDAGTTYVGTTYVATGYFNLWGQGTLVTVSS
VL: QPVLTQPPSASAALGASAKLTCTLSSAHKTYTIAWYQQQQGEAPRYLMILKSDGSYTRGTGVPDRFSGSSSGADRYLIISSVQADDEADYYCGADDSGGYVFGGGTQLTVTG
notes: Rabbit monoclonal antibody from phage display; also called Nectin-4 rabbit monoclonal antibody R036; rabbit antibody R036
For B2, in the test with Nectin-1, the binding result is recorded as “no binding (tested: 10000 ng/ml)”. The OD detection value with Nectin-like-2 was 0.007 OD450 nm-650 nm; in the test with Nectin-2 it was 0.007 OD450 nm-650 nm; with Nectin-like-5, 0.009 OD450 nm-650 nm; with Nectin-like-4, 0.007 OD450 nm-650 nm; in the test with Nectin-like-1, 0.007 OD450 nm-650 nm.

B3: Antibody MM11 (antibody, mouse IgG1, kappa, V domains shown)
VH: DVQLQESGPGLVKPSQSLSLTCSVTGYSITSNFYWNWIRQFPGNRLEWMGYISYDGSNNYNPSLKNRISISRDTSKNQFFLKLNSVTTEDTATYYCVRADYWGQGTLVTVSA
VL: DTVMTQTPLSLPVSLGDQASISCRSSQSLESSDGHAYLNWYLQKPGQSPQLLIYRVSNRFSGVLHRFSGSGSGTDFTLKISRVEAEDLGVYFCLQFTHVPFTFGSGTKLEIKR
notes: Mouse monoclonal antibody from hybridoma; also called Nectin-4 mouse monoclonal antibody MM11; mouse antibody MM11
As to B3, the binding result with Nectin-1 is listed as “no binding (tested: 10000 ng/ml)”. Besides, the OD detection value with Nectin-like-2 is 0.007 OD450 nm-650 nm; in the test with Nectin-2, 0.014 OD450 nm-650 nm; with Nectin-like-5 it was 0.006 OD450 nm-650 nm; in the test with Nectin-like-4 it was 0.004 OD450 nm-650 nm; with Nectin-like-1, 0.006 OD450 nm-650 nm.
